Measured values reported in US20260009052, “CAS12 PROTEINS AND USES THEREOF” (GUANGZHOU REFORGENE MEDICINE CO., LTD., published 2026).
Where a chain is given by its changes, count along the chain named.

Legend:
[1] = target: T1, C12-279 Q186R (Mut-01) (synthetic construct, Q186R); assay: cell_activity; PAM TTG; +/-0.32
T1 chain: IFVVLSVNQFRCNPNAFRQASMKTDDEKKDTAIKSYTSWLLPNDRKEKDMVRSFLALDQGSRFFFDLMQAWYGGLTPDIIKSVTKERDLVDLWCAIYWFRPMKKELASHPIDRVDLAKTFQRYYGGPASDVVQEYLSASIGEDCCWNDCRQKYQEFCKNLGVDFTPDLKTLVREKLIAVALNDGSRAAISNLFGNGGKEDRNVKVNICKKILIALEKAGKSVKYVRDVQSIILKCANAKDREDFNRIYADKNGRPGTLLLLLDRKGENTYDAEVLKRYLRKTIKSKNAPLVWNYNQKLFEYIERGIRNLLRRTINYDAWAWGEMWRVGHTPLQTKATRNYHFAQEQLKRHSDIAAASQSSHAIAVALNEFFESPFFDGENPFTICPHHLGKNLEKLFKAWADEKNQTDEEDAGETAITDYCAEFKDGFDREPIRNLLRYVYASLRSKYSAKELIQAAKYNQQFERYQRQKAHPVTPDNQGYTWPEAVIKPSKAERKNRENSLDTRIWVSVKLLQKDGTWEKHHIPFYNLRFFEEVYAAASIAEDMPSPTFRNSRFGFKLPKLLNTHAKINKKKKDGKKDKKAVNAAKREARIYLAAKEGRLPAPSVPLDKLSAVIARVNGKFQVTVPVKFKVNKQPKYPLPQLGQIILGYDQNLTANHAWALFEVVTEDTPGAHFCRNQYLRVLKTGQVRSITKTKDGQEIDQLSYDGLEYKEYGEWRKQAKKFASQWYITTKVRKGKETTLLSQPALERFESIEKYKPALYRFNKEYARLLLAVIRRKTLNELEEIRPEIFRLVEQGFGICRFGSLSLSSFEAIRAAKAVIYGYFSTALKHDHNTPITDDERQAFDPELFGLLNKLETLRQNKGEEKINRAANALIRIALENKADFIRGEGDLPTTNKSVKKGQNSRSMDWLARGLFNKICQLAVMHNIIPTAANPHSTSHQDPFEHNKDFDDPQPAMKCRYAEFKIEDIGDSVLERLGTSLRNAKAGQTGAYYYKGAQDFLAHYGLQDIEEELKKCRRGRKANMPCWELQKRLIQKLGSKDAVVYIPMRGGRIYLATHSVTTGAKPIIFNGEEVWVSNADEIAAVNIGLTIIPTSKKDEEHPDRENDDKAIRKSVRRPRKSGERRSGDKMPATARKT
Protocol: (§1) Transfection: transfection was performed 12-14 h after plating. 1.5 μL PEI (Yeasen Biotechnology, 40815ES03, Polyethylenimine Linear (PEI) MW25000) and 500 ng mutation clone plasmid were added to 100 μL Opti-MEM per well of the 24-well plate, mixed, and added to the NAAN cell line for cell transfection after placing at room temperature for 20 min. After overnight transfection, a fresh culture medium was replaced, and the culture was continued for 72 h, followed by flow cytometry. Editing efficiencies of different mutant clones were characterized by the proportion of GFP-positive cells.
(§2) Editing efficiency of some selected mutants was tested in Reporter3 cell line using the same manner as described for the NAAN reporter system, except that the cell line was changed from NAAN cell line to Reporter3 cell line.

[2] = target: T2, C12-279 D352R/Q186R/H350R (synthetic construct, Q186R,H350R,D352R); assay: cell_activity; PAM TTG
T2 chain: T1 chain with H350R, D352R
Protocol: as §1, §2

B1: C12-279 Reporter3 sgRNA ; Reporter3 target (ssRNA ; dsDNA)
RNA: GUAAUGCGUCUCCCAUUGACGCCUCACCUCGCGACGCAAUGAUG
DNA 1: CTCACCTCGCGACGCAATGATG
DNA 2: CATCATTGCGTCGCGAGGTGAG
In the case of B1, the binding signal [1] is reported as 1.6 fold of C12-279 and the binding signal [2] is reported as 2.11 fold of C12-279.
